Laboratory results reported in patent publication US20220281976A1 (Alector, published 2022).
Positions count from the first letter of the chain named.

T1: mouse CD33 Fc fusion protein (mouse, UniProt Q63994 18-240, limits assumed)
T1 construct: also called mCD33-Fc
T1 sequence: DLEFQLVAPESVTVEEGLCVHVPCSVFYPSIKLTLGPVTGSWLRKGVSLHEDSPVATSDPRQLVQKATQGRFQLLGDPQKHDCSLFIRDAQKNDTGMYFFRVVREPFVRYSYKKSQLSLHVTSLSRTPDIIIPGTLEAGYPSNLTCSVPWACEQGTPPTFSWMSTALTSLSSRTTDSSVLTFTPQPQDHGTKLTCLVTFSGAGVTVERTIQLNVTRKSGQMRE

B1: C-92 (antibody, V domains shown)
VH: EVQLVESGGGLVKPGGSLRLSCAASGFTFSSYSMNWVRQAPGKGLEWVSSISSSSSYIYYADSVKGRFTISRDNAKNSLYLQMNSLRAEDTAVYYCARLGATATTDYAYGMDVWGQGTTVTVSS
VL: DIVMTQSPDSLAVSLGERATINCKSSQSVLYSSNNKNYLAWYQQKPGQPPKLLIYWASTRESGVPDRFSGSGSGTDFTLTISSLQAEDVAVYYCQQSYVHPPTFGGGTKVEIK
notes: human IgG1
B2: C-7 (antibody, V domains shown)
VH: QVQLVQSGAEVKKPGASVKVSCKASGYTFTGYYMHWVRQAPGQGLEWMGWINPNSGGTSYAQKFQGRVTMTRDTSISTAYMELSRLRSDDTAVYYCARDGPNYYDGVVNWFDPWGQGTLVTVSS
VL: DIQMTQSPSTLSASVGDRVTITCRASQSISSWLAWYQQKPGKAPKLLIYDASSLESGVPSRFSGSGSGTEFTLTISSLQPDDFATYYCQQARSYPPTFGGGTKVEIK
notes: human IgG1
B3: C-84 (antibody, V domains shown)
VH: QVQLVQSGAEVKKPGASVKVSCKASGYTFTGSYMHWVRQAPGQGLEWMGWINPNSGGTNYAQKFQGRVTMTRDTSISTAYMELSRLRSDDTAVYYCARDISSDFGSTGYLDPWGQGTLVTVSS
VL: B2 VL with A91V, R92N, S93R, P96F
notes: human IgG1
B4: C-76 (antibody, V domains shown)
VH: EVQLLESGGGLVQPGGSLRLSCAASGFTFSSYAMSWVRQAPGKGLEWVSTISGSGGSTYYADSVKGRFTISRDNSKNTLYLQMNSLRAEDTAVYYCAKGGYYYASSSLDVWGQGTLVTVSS
VL: DIVMTQSPDSLAVSLGERATINCKSSQSVLYSSNNKNYLAWYQQKPGQAPRLLIYGASSRATGIPDRFSGSGSGTDFTLTISRLEPEDFAVYYCQQDYNSPLTFGGGTKVEIK
notes: human IgG1
B5: C-95 (antibody, V domains shown)
VH: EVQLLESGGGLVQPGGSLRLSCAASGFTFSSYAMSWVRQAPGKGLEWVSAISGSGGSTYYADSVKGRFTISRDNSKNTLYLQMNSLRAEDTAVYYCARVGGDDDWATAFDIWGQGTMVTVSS
VL: B4 VL with N99S
notes: human IgG1
B6: C-77 (antibody, V domains shown)
VH: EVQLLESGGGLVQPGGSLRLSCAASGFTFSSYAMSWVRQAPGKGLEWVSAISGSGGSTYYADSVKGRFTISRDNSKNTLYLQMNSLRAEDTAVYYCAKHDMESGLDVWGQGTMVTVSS
VL: B4 VL with M4L, N99V
notes: human IgG1
B7: C-90 (antibody, V domains shown)
VH: EVQLVESGGGLVQPGGSLRLSCAASGFTFSSYWMSWVRQAPGKGLEWVANINQDGSEKYYVDSVKGRFTISRDNAKNSLYLQMNSLRAEDTAVYYCAREAGAVTGYRWFDPWGQGTLVTVSS
VL: DIQMTQSPSSLSASVGDRVTITCRASQSISSYLNWYQQKPGKAPKLLIYGASSLQSGVPSRFSGSGSGTDFTLTISSLQPEDFATYYCQQQYLTPLTFGGGTKVEIK
notes: human IgG1
B8: C-91 (antibody, V domains shown)
VH: EVQLVESGGGLVQPGGSLRLSCAASGFTFSSYWMSWVRQAPGKGLEWVANIKSDGSEKYYVDSVKGRFTISRDNAKNSLYLQMNSLRAEDTAVYYCARDVGGDYSGSDLASYWGQGTLVTVSS
VL: B7 VL with G50A, Q91G, L93D, T94P
notes: human IgG1
B9: C-109 (antibody, V domains shown)
VH: B8 VH
VL: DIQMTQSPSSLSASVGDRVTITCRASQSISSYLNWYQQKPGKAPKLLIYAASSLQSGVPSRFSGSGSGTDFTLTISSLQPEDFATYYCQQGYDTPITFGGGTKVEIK
notes: human IgG1
B10: C-87 (antibody, V domains shown)
VH: QLQLQESGPGLVKPSETLSLTCTVSGGSISSSSYAWGWIRQPPGKGLEWIGSIYYSGSTYYNPSLKSRVTISVDTSKNQFSLKLSSVTAADTAVYYCARDPLYPLTPYGMDVWGQGTTVTVSS
VL: EIVMTQSPATLSLSPGERATLSCRASQSVSSYLAWYQQKPGQAPRLLIYDASNRATGIPARFSGSGSGTDFTLTISSLEPEDFAVYYCQQLSVFPPTFGGGTKVEIK
notes: human IgG1
B11: C-88 (antibody, V domains shown)
VH: QLQLQESGPGLVKPSETLSLTCTVSGGSISSSSYYWGWIRQPPGKGLEWIGSIYYSGSTYYNPSLKSRVTISVDTSKNQFSLKLSSVTAADTAVYYCARLPIYYDSSGYFDYHGMDVWGQGTTVTVSS
VL: B10 VL with M4L, L91H, S92A, V93N, F94H
notes: human IgG1
B12: C-89 (antibody, V domains shown)
VH: QLQLQESGPGLVKPSETLSLTCTVSGGSISSSSYYWGWIRQPPGKGLEWIGSIYYSGSTYYNPSLKSRVTISVDTSKNQFSLKLSSVTAADTAVYYCAREGPRFDPWGQGTLVTVSS
VL: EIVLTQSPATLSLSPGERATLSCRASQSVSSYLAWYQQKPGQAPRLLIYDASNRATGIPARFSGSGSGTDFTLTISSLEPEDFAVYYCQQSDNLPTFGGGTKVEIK
notes: human IgG1
B13: C-79 (antibody, V domains shown)
VH: QVQLVQSGAEVKKPGASVKVSCKASGYTFTSYYIHWVRQAPGQGLEWMGIINPSGGSTSYAQKFQGRVTMTRDTSTSTVYMELSSLRSEDTAVYYCARVSRQQHSMDVWGQGTTVTVSS
VL: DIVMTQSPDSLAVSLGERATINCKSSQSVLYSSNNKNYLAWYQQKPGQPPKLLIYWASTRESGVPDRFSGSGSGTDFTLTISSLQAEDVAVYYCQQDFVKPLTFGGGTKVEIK
notes: human IgG1

Biological target: T2, human CD33 (human, UniProt P20138 18-364)
T2 sequence (P20138 18-364): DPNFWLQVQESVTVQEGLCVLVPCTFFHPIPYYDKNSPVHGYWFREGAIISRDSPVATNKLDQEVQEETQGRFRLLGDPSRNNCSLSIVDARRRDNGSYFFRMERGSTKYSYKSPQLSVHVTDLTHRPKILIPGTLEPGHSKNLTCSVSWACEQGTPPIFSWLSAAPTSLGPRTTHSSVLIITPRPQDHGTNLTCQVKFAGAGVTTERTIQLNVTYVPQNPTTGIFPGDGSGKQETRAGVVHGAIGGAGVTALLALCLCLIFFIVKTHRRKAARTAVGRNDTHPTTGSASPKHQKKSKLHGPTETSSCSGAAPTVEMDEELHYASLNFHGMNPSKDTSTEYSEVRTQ
Assay: cell-based or functional assay

| Percent CD33 Surface Expression, DC % CD33 [%] | Percent CD33 Surface Expression, Monocyte % CD33 [%] | Percent CD33 Surface Expression, Macrophage % CD33 [%] | Binder |
| --- | --- | --- | --- |
| 73.9 | 79.2 |  | B1 |
| 66.9 | 96.5 | 97 | B2 |
| 75.9 | 90.4 |  | B3 |
| 85.5 | 92.4 |  | B4 |
| 87.9 | 83 |  | B5 |
| 84.2 | 87.6 |  | B6 |
| 18.5 | 35.4 | 41.3 | B7 |
| 18.8 | 24.3 | 38.4 | B8 |
| 30 | 31.1 | 38.9 | B9 |
| 28.4 | 36.1 | 47.5 | B10 |
| 18.6 | 28.7 | 41.4 | B11 |
| 19.6 | 25.3 | 41.2 | B12 |
| 83.1 | 91.1 |  | B13 |

Biological target: T1, mouse CD33 Fc fusion protein
Assay: ForteBio BLI or MSD-SET

| binding result | Binder |
| --- | --- |
| no binding (tested: 100 nM) | B1 |
| no binding (tested: 100 nM) | B2 |
| no binding (tested: 100 nM) | B3 |
| no binding (tested: 100 nM) | B4 |
| no binding (tested: 100 nM) | B5 |
| no binding (tested: 100 nM) | B6 |
| no binding (tested: 100 nM) | B7 |
| no binding (tested: 100 nM) | B8 |
| no binding (tested: 100 nM) | B9 |
| no binding (tested: 100 nM) | B10 |
| no binding (tested: 100 nM) | B11 |
| no binding (tested: 100 nM) | B12 |
| no binding (tested: 100 nM) | B13 |

Biological target: T3, human CD33 Fc fusion protein (human, UniProt P20138 18-259)
T3 construct: also called hCD33-Fc; human CD33/Fc chimera (R&D Systems)
T3 sequence (P20138 18-259 limits assumed): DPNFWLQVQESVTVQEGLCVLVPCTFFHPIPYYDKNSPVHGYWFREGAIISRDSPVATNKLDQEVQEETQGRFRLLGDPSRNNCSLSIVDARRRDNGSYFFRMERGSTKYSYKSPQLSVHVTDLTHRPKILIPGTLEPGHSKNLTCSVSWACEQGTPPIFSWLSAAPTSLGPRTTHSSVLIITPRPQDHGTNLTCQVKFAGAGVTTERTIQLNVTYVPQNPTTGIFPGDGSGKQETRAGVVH
Assay: ForteBio BLI or MSD-SET, IgG, avid;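 note: Anti-CD33 IgG affinity by BLI, IgG captured on AHQ sensors with antigen in solution and a one-to-one kinetic fit, or by MSD solution equilibrium titration with quadratic fit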
Protocol: The binding affinity of each anti-CD33 antibody was determined by measuring their KD by ForteBio or MSD-SET. […] Briefly, ForteBio affinity measurements were performed by loading IgGs on-line onto AHQ sensors. Sensors were equilibrated off-line in assay buffer for 30 min and then monitored on-line for 60 seconds for baseline establishment. Sensors with loaded IgGs were exposed to 100 nM antigen for 5 minutes, then transferred to assay buffer for 5 min for off-rate measurement. Kinetics were analyzed using the 1:1 binding model.
Solution equilibrium titrations (SET) were performed in PBS+0.1% IgG-Free BSA (PBSF) with antigen held constant at 50 pM and incubated with 3-to 5-fold serial dilutions of antibody starting at 10 nM. Antibodies (20 nM in PBS) were coated onto standard bind MSD-ECL plates overnight at 4° C. or at room temperature for 30 min. Plates were then blocked for 30 min with shaking at 700 rpm, followed by three washes with wash buffer (PBSF+0.05% Tween 20). SET samples were applied and incubated on the plates for 150s with shaking at 700 rpm followed by one wash. Antigen captured on a plate was detected with 250 ng/mL sulfotag-labeled streptavidin in PBSF by incubation on the plate for 3 min. The plates were washed three times with wash buffer and then read on the MSD Sector Imager 2400 instrument using 1× Read Buffer T with surfactant. The percent free antigen was plotted as a function of titrated antibody in Prism and fit to a quadratic equation to extract the KD. To improve throughput, liquid handling robots were used throughout MSD-SET experiments, including SET sample preparation.

| Kd [nM] | Binder |
| --- | --- |
| 3.4 | B1 |
| 1.01 | B2 |
| 7.39 | B3 |
| 3.01 | B4 |
| 9.65 | B5 |
| 2.15 | B6 |
| 1.51 | B7 |
| 1.2 | B8 |
| 1.24 | B9 |
| 1.93 | B10 |
| 0.734 | B11 |
| 1.16 | B12 |
| 2.28 | B13 |

Biological target: T2, human CD33
Assay: flow cytometry, human primary T cells;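 note: binding of anti-CD33 antibodies at 10 ug/ml to human primary T cells, 1 h on ice, detected with PE-labelled secondary antibody, read as flow cytometry MFI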
Protocol: (§1) Initial characterization of CD33 antibodies involved determining their ability to bind CD33 expressed on a CHO cell line, on human primary monocytes, human primary macrophages, human primary dendritic cells, and on human primary T cells. Cells were harvested, plated at 10⁶/ml in a 96 well plate, and incubated in 100 ul PBS containing 2% FBS, 2 mM EDTA and 10 ug/ml Mab and Fc blocking reagent for 1 hour in ice. Cells were washed twice and incubated in 100 ul PBS containing 2% FBS, 2 mM EDTA and 5 ug/ml PE-conjugated secondary antibody for 30 minutes on ice. Cells were washed twice in cold PBS and analyze by flow cytometry on a BD FACS Canto. Data analysis and calculation of MFI values was performed with FlowJo (TreeStar) software version 10.0.7.

| T cell MFI | Binder |
| --- | --- |
| 42.3 | B1 |
| 52.5 | B2 |
| 95.8 | B3 |
| 185 | B4 |
| 144 | B5 |
| 263 | B6 |
| 329 | B7 |
| 38.2 | B8 |
| 247 | B9 |
| 246 | B10 |
| 204 | B11 |
| 109 | B12 |
| 228 | B13 |

Biological target: T2, human CD33
Assay: flow cytometry, human primary monocytes;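 note: binding of anti-CD33 antibodies at 10 ug/ml to human primary monocytes, 1 h on ice, detected by PE-labelled secondary antibody, flow cytometry readout as mean fluorescence intensity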
Set-up: reference not given here

| Monocyte MFI | Binder |
| --- | --- |
| 918 | B1 |
| 87 | B2 |
| 532 | B3 |
| 654 | B4 |
| 569 | B5 |
| 698 | B6 |
| 987 | B7 |
| 893 | B8 |
| 867 | B9 |
| 971 | B10 |
| 957 | B11 |
| 1120 | B12 |
| 815 | B13 |

Biological target: T2, human CD33
Assay: flow cytometry, human primary macrophages;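 note: binding of CD33 antibodies at 10 µg/ml to human primary macrophages, 1 h on ice, detected with PE-labelled secondary antibody by flow cytometry, reported as MFI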
Protocol: as §1

| Macrophage MFI | Binder |
| --- | --- |
| 537 | B1 |
| 626 | B2 |
| 313 | B3 |
| 455 | B4 |
| 369 | B5 |
| 493 | B6 |
| 1260 | B7 |
| 1230 | B8 |
| 1240 | B9 |
| 1260 | B10 |
| 1200 | B11 |
| 1420 | B12 |
| 654 | B13 |

Biological target: T2, human CD33
Assay: flow cytometry, human primary dendritic cells;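 note: binding of anti-CD33 antibodies (10 ug/ml, 1 h on ice) to human primary dendritic cells, detected with a PE-labelled secondary antibody, reported as flow cytometry MFI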
Protocol: as §1

| DC MFI | Binder |
| --- | --- |
| 107 | B1 |
| 814 | B2 |
| 55 | B3 |
| 43 | B4 |
| 48 | B5 |
| 43 | B6 |
| 151 | B7 |
| 150 | B8 |
| 164 | B9 |
| 172 | B10 |
| 178 | B11 |
| 203 | B12 |
| 43 | B13 |

Biological target: T4, human monomeric His tagged CD33 protein (human, UniProt P20138 18-259)
T4 construct: also called hCD33-His
T4 sequence (P20138 18-259 limits assumed): as above
Assay: ForteBio BLI or MSD-SET, IgG, monomeric antigen;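 note: BLI: antibodies captured on AHQ sensors, 100 nM antigen association 5 min, dissociation 5 min, 1:1 fit. MSD-SET: antigen fixed at 50 pM, antibody titrated, quadratic fit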

| Kd [nM] | Binder |
| --- | --- |
| 15.7 | B1 |
| 3.29 | B2 |
| 62.6 | B3 |
| 13.5 | B4 |
| 71.5 | B5 |
| 11.1 | B6 |
| 5.74 | B7 |
| 4.26 | B8 |
| 4.8 | B9 |
| 7.04 | B10 |
| 2.7 | B11 |
| 4.88 | B12 |
| 11.2 | B13 |

Biological target: T3, human CD33 Fc fusion protein
Assay: RBC adhesion to plate-bound CD33-Fc; antibody 0.5 ug/ml;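 note: Plate-coated CD33-Fc preincubated 1 h with antibody, then red blood cells added for 1 h at room temperature, adherent cells lysed and quantified via peroxidase activity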

| Percent RBC Binding to CD33 [%] | Binder |
| --- | --- |
| 98.5 | B1 |
| 122 | B2 |
| 96.8 | B3 |
| 85.5 | B4 |
| 85 | B5 |
| 61.4 | B6 |
| 17.2 | B7 |
| 17.6 | B8 |
| 17.6 | B9 |
| 29.4 | B10 |
| 39.4 | B11 |
| 20.6 | B12 |
| 45.7 | B13 |

Biological target: T3, human CD33 Fc fusion protein
Assay: RBC adhesion to plate-bound CD33-Fc; antibody 1.0 ug/ml;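 note: red blood cells adhering to plate-coated CD33-Fc after 1 h antibody pretreatment, then 1 h at room temperature, bound cells read as peroxidase activity after lysis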

| Percent RBC Binding to CD33 [%] | Binder |
| --- | --- |
| 76.2 | B1 |
| 108 | B2 |
| 103 | B3 |
| 87.7 | B4 |
| 92.3 | B5 |
| 77.7 | B6 |
| 6.8 | B7 |
| 7 | B8 |
| 8.3 | B9 |
| 9.5 | B10 |
| 10.9 | B11 |
| 10.5 | B12 |
| 83.5 | B13 |
